In publication PMC9687312:
pKd: −log10 of the molar value.

Legend:
[1] = biological target: MGL Biot-ECD (biotinylated extracellular domain of MGL) (UniProt Q8IUN9); assay: SPR
[2] = biological target: DC-SIGN Biot-ECD (biotinylated extracellular domain of DC-SIGN) (UniProt Q9NNX6); assay: SPR
Sequence of UniProt Q9NNX6 (Q9NNX6 59-404): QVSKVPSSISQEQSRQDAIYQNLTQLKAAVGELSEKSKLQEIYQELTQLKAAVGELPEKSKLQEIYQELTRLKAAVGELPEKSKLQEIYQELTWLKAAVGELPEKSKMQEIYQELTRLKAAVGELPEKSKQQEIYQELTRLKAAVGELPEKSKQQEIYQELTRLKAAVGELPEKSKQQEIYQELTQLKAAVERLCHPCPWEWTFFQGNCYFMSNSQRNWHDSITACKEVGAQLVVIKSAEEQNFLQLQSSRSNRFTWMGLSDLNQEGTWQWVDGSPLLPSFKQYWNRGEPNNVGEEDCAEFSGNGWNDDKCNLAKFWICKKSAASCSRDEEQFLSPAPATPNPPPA

Sequence of UniProt Q8IUN9 (Q8IUN9 61-316): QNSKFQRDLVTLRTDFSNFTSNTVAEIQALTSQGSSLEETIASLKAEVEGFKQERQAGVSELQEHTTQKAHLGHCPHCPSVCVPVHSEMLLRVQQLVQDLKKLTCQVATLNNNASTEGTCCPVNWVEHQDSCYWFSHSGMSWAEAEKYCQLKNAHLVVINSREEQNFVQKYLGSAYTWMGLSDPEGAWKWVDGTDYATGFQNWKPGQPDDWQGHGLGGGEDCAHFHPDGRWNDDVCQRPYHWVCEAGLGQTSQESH

How did the pKd [1] turn out when “ADD KGE RBD (ADD-KGE/RBD-SC covalent complex) (from UniProt Q2Y0H9 1-544; P0DTC2 320-554)” was run?
The pKd was 7.18.

And the pKd [2]?
Its pKd is 9.47.
